B1: Lysozyme C, P61626 (parent)
chain: MKALIVLGLVLLSVTVQGKVFERCELARTLKRLGMDGYRGISLANWMCLAKWESGYNTRATNYNAGDRSTDYGIFQINSRYWCNDGKTPGAVNACHLSCSALLQDNIADAVACAKRVVRDPQGIRAWVAWRNRCQNRDVRQYVQGCGV

Variants of: B1
Conditions: Homo sapiens; pH 2.5; Thermal; DSC; glycine 0.05 M; reversible: yes; structure 1LZ1; whole UniProt chain shown
With MKALIVLGLVLLSVTVQGKVFERCELARTLKRLGMDGYRGISLANWMCLAKWESGYNTRATNYNAGDRSTDYGIFQINSRYWCNDGKTPGAVNACHLSCSALLQDNAADAVACAKRVVRDPQGIRAWVAWRNRCQNRDVRQYVQGCGV [I107A] the Tm was 52.6 °C, the “heat capacity change of unfolding” value was 1.72 kcal/mol/K and the “unfolding enthalpy (calorimetric)” value was 89.5 kcal/mol. The “unfolding enthalpy (van 't Hoff)” value was 95.5 kcal/mol. In the case of MKALIVLGLVLLSVTVQGKVFERCELARTLKRLGMDGYRGISLANWMCLAKWESGYNTRATNYNAGDRSTDYGAFQINSRYWCNDGKTPGAVNACHLSCSALLQDNIADAVACAKRVVRDPQGIRAWVAWRNRCQNRDVRQYVQGCGV [I74A], the Tm is reported as 48.2 °C, the “heat capacity change of unfolding” value is reported as 1.22 kcal/mol/K and the “unfolding enthalpy (calorimetric)” value is reported as 82.8 kcal/mol. The “unfolding enthalpy (van 't Hoff)” value was 84 kcal/mol.

Same assay, conditions: Homo sapiens; pH 2.66; Thermal; DSC; glycine 0.05 M; reversible: yes; structure 1LZ1; whole UniProt chain shown
For MKALIVLGLVLLSVTVQGKVFERCELARTLKRLGMDGYRGISLANWMCLAKWESGYNTRATNYNAGDRSTDYGIFQINSRYWCNDGKTPGAVNACHLSCSALLQDNAADAVACAKRVVRDPQGIRAWVAWRNRCQNRDVRQYVQGCGV [I107A], the Tm was 55.4 °C, the “heat capacity change of unfolding” value was 1.39 kcal/mol/K and the “unfolding enthalpy (calorimetric)” value was 93.1 kcal/mol. For the same variant, the “unfolding enthalpy (van 't Hoff)” value was 98.1 kcal/mol.

Same assay, conditions: Homo sapiens; pH 2.7; 64.9 °C; Thermal; DSC; glycine 0.05 M; reversible: yes; structure 1LZ1; whole UniProt chain shown
In the case of MKALIVLGLVLLSVTVQGKVFERCELARTLKRLGMDGYRGISLANWMCLAKWESGYNTRATNYNAGDRSTDYGIFQINSRYWCNDGKTPGAVNACHLSCSALLQDNAADAVACAKRVVRDPQGIRAWVAWRNRCQNRDVRQYVQGCGV [I107A], the “ddG of mutation (higher = less stable)” value is reported as 2.7 kcal/mol, the “heat capacity change of unfolding” value is reported as 1.65 kcal/mol/K and the “unfolding enthalpy (calorimetric)” value is reported as 110 kcal/mol. For the same variant, the “unfolding enthalpy (van 't Hoff)” value was 113 kcal/mol. For MKALIVLGLVLLSVTVQGKVFERCELARTLKRLGMDGYRGISLANWMCLAKWESGYNTRATNYNAGDRSTDYGIFQINSRYWCNDGKTPGAVNACHLSCSALLQDNIADAVACAKRVVRDPQGARAWVAWRNRCQNRDVRQYVQGCGV [I124A], the “ddG of mutation (higher = less stable)” value was 0.93 kcal/mol, the “heat capacity change of unfolding” value was 1.34 kcal/mol/K and the “unfolding enthalpy (calorimetric)” value was 106 kcal/mol. The “unfolding enthalpy (van 't Hoff)” value was 112 kcal/mol. In the case of MKALIVLGLVLLSVTVQGKVFERCELARTLKRLGMDGYRGISLANWMCLAKWESGYNTRATNYNAGDRSTDYGAFQINSRYWCNDGKTPGAVNACHLSCSALLQDNIADAVACAKRVVRDPQGIRAWVAWRNRCQNRDVRQYVQGCGV [I74A], the “ddG of mutation (higher = less stable)” value is reported as 3.71 kcal/mol, the “heat capacity change of unfolding” value is reported as 1.34 kcal/mol/K and the “unfolding enthalpy (calorimetric)” value is reported as 105 kcal/mol. For the same variant, the “unfolding enthalpy (van 't Hoff)” value was 111 kcal/mol.

Same assay, conditions: Homo sapiens; pH 2.7; Thermal; DSC; glycine 0.05 M; reversible: yes; structure 1LZ1; whole UniProt chain shown
With MKALIVLGLVLLSVTVQGKVFERCELARTLKRLGMDGYRGISLANWMCLAKWESGYNTRATNYNAGDRSTDYGIFQINSRYWCNDGKTPGAVNACHLSCSALLQDNAADAVACAKRVVRDPQGIRAWVAWRNRCQNRDVRQYVQGCGV [I107A] the Tm was 56.2 °C, the “change of melting temperature, mutant - wild type (higher = more stable)” value was -8.7 °C and the “heat capacity change of unfolding” value was 1.65 kcal/mol/K. In the case of MKALIVLGLVLLSVTVQGKVFERCELARTLKRLGMDGYRGISLANWMCLAKWESGYNTRATNYNAGDRSTDYGIFQINSRYWCNDGKTPGAVNACHLSCSALLQDNIADAVACAKRVVRDPQGARAWVAWRNRCQNRDVRQYVQGCGV [I124A], the Tm is reported as 61.9 °C, the “change of melting temperature, mutant - wild type (higher = more stable)” value is reported as -3 °C and the “heat capacity change of unfolding” value is reported as 1.34 kcal/mol/K.

Same assay, conditions: Homo sapiens; pH 2.8; Thermal; DSC; glycine 0.05 M; reversible: yes; structure 1LZ1; whole UniProt chain shown
With MKALIVLGLVLLSVTVQGKVFERCELARTLKRLGMDGYRGISLANWMCLAKWESGYNTRATNYNAGDRSTDYGIFQINSRYWCNDGKTPGAVNACHLSCSALLQDNAADAVACAKRVVRDPQGIRAWVAWRNRCQNRDVRQYVQGCGV [I107A] the Tm was 57.7 °C, the “heat capacity change of unfolding” value was 1.08 kcal/mol/K and the “unfolding enthalpy (calorimetric)” value was 97.8 kcal/mol. For the same variant, the “unfolding enthalpy (van 't Hoff)” value was 103 kcal/mol. For MKALIVLGLVLLSVTVQGKVFERCELARTLKRLGMDGYRGISLANWMCLAKWESGYNTRATNYNAGDRSTDYGIFQINSRYWCNDGKTPGAVNACHLSCSALLQDNIADAVACAKRVVRDPQGARAWVAWRNRCQNRDVRQYVQGCGV [I124A], the Tm was 64.1 °C, the “heat capacity change of unfolding” value was 0.98 kcal/mol/K and the “unfolding enthalpy (calorimetric)” value was 104 kcal/mol. For the same variant, the “unfolding enthalpy (van 't Hoff)” value was 111 kcal/mol.

Same assay, conditions: Homo sapiens; pH 2.95; Thermal; DSC; glycine 0.05 M; reversible: yes; structure 1LZ1; whole UniProt chain shown
With MKALIVLGLVLLSVTVQGKVFERCELARTLKRLGMDGYRGISLANWMCLAKWESGYNTRATNYNAGDRSTDYGIFQINSRYWCNDGKTPGAVNACHLSCSALLQDNAADAVACAKRVVRDPQGIRAWVAWRNRCQNRDVRQYVQGCGV [I107A] the Tm was 61.1 °C, the “heat capacity change of unfolding” value was 1.67 kcal/mol/K and the “unfolding enthalpy (calorimetric)” value was 103 kcal/mol. For the same variant, the “unfolding enthalpy (van 't Hoff)” value was 108 kcal/mol.

Same assay, conditions: Homo sapiens; pH 3.09; Thermal; DSC; glycine 0.05 M; reversible: yes; structure 1LZ1; whole UniProt chain shown
In the case of MKALIVLGLVLLSVTVQGKVFERCELARTLKRLGMDGYRGISLANWMCLAKWESGYNTRATNYNAGDRSTDYGIFQINSRYWCNDGKTPGAVNACHLSCSALLQDNAADAVACAKRVVRDPQGIRAWVAWRNRCQNRDVRQYVQGCGV [I107A], the Tm is reported as 62.9 °C, the “heat capacity change of unfolding” value is reported as 1.51 kcal/mol/K and the “unfolding enthalpy (calorimetric)” value is reported as 106 kcal/mol. For the same variant, the “unfolding enthalpy (van 't Hoff)” value was 110 kcal/mol.

Same assay, conditions: Homo sapiens; pH 2.51; Thermal; DSC; glycine 0.05 M; reversible: yes; structure 1LZ1; whole UniProt chain shown
With MKALIVLGLVLLSVTVQGKVFERCELARTLKRLGMDGYRGISLANWMCLAKWESGYNTRATNYNAGDRSTDYGIFQINSRYWCNDGKTPGAVNACHLSCSALLQDNIADAVACAKRVVRDPQGARAWVAWRNRCQNRDVRQYVQGCGV [I124A] the Tm was 57.7 °C, the “heat capacity change of unfolding” value was 1.15 kcal/mol/K and the “unfolding enthalpy (calorimetric)” value was 96.4 kcal/mol. For the same variant, the “unfolding enthalpy (van 't Hoff)” value was 102 kcal/mol.

Same assay, conditions: Homo sapiens; pH 2.96; Thermal; DSC; glycine 0.05 M; reversible: yes; structure 1LZ1; whole UniProt chain shown
For MKALIVLGLVLLSVTVQGKVFERCELARTLKRLGMDGYRGISLANWMCLAKWESGYNTRATNYNAGDRSTDYGIFQINSRYWCNDGKTPGAVNACHLSCSALLQDNIADAVACAKRVVRDPQGARAWVAWRNRCQNRDVRQYVQGCGV [I124A], the Tm was 67.4 °C, the “heat capacity change of unfolding” value was 1.17 kcal/mol/K and the “unfolding enthalpy (calorimetric)” value was 109 kcal/mol. For the same variant, the “unfolding enthalpy (van 't Hoff)” value was 114 kcal/mol. In the case of MKALIVLGLVLLSVTVQGKVFERCELARTLKRLGMDGYRGISLANWMCLAKWESGYNTRATNYNAGDRSTDYGAFQINSRYWCNDGKTPGAVNACHLSCSALLQDNIADAVACAKRVVRDPQGIRAWVAWRNRCQNRDVRQYVQGCGV [I74A], the Tm is reported as 58.5 °C, the “heat capacity change of unfolding” value is reported as 1.6 kcal/mol/K and the “unfolding enthalpy (calorimetric)” value is reported as 96.9 kcal/mol. The “unfolding enthalpy (van 't Hoff)” value was 102 kcal/mol.

Same assay, conditions: Homo sapiens; pH 3.1; Thermal; DSC; glycine 0.05 M; reversible: yes; structure 1LZ1; whole UniProt chain shown
With MKALIVLGLVLLSVTVQGKVFERCELARTLKRLGMDGYRGISLANWMCLAKWESGYNTRATNYNAGDRSTDYGIFQINSRYWCNDGKTPGAVNACHLSCSALLQDNIADAVACAKRVVRDPQGARAWVAWRNRCQNRDVRQYVQGCGV [I124A] the Tm was 69.7 °C, the “heat capacity change of unfolding” value was 1.58 kcal/mol/K and the “unfolding enthalpy (calorimetric)” value was 112 kcal/mol. The “unfolding enthalpy (van 't Hoff)” value was 119 kcal/mol.

Same assay, conditions: Homo sapiens; pH 2.73; Thermal; DSC; glycine 0.05 M; reversible: yes; structure 1LZ1; whole UniProt chain shown
Work on MKALIVLGLVLLSVTVQGKVFERCELARTLKRLGMDGYRGISLANWMCLAKWESGYNTRATNYNAGDRSTDYGGFQINSRYWCNDGKTPGAVNACHLSCSALLQDNIADAVACAKRVVRDPQGIRAWVAWRNRCQNRDVRQYVQGCGV [I74G] yielded a Tm of 62.7 °C.

Same assay, conditions: Homo sapiens; pH 2.67; Thermal; DSC; glycine 0.05 M; reversible: yes; structure 1LZ1; whole UniProt chain shown
For MKALIVLGLVLLSVTVQGKVFERCELARTLKRLGMDGYRGISLANWMCLAKWESGYNTRATNYNAGDRSTDYGAFQINSRYWCNDGKTPGAVNACHLSCSALLQDNIADAVACAKRVVRDPQGIRAWVAWRNRCQNRDVRQYVQGCGV [I74A], the Tm was 52.3 °C, the “heat capacity change of unfolding” value was 1.53 kcal/mol/K and the “unfolding enthalpy (calorimetric)” value was 89 kcal/mol. The “unfolding enthalpy (van 't Hoff)” value was 91.4 kcal/mol.

Same assay, conditions: Homo sapiens; pH 2.81; Thermal; DSC; glycine 0.05 M; reversible: yes; structure 1LZ1; whole UniProt chain shown
For MKALIVLGLVLLSVTVQGKVFERCELARTLKRLGMDGYRGISLANWMCLAKWESGYNTRATNYNAGDRSTDYGAFQINSRYWCNDGKTPGAVNACHLSCSALLQDNIADAVACAKRVVRDPQGIRAWVAWRNRCQNRDVRQYVQGCGV [I74A], the Tm was 54.2 °C, the “heat capacity change of unfolding” value was 1.46 kcal/mol/K and the “unfolding enthalpy (calorimetric)” value was 90.7 kcal/mol. For the same variant, the “unfolding enthalpy (van 't Hoff)” value was 92.1 kcal/mol.

Same assay, conditions: Homo sapiens; pH 3.08; Thermal; DSC; glycine 0.05 M; reversible: yes; structure 1LZ1; whole UniProt chain shown
For MKALIVLGLVLLSVTVQGKVFERCELARTLKRLGMDGYRGISLANWMCLAKWESGYNTRATNYNAGDRSTDYGAFQINSRYWCNDGKTPGAVNACHLSCSALLQDNIADAVACAKRVVRDPQGIRAWVAWRNRCQNRDVRQYVQGCGV [I74A], the Tm was 60.2 °C, the “heat capacity change of unfolding” value was 1.44 kcal/mol/K and the “unfolding enthalpy (calorimetric)” value was 98.8 kcal/mol. The “unfolding enthalpy (van 't Hoff)” value was 102 kcal/mol.
